Test results: patent US20240294963

Columns and labels:
[1] = molecular target: Interferon-gamma (IFNγ) (UniProt P01579)
[2] = tested on: T1, peptide with the sequence TNYS found in IFNγ
T1 sequence: TNYS

[3] = tested on: T2, peptide with the YNST sequence from Fc
T2 sequence: YNST

[4] = tested on: constant region (Fc) of a human immunoglobulin antibody (IgG1) [IgG part: P01857]
[5] = tested on: T3, peptide with the LNLS sequence from GM-CSF
T3 sequence: LNLS

[6] = molecular target: Granulocyte-Macrophage Colony-Stimulating Factor (GM-CSF) (UniProt P04141)
Granulocyte-Macrophage Colony-Stimulating Factor (GM-CSF), sequence (P04141 18-144): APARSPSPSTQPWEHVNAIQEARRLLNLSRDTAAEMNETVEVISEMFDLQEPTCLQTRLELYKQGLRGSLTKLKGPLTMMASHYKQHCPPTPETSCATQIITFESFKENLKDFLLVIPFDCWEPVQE

Interferon-gamma (IFNγ), sequence (P01579 24-166): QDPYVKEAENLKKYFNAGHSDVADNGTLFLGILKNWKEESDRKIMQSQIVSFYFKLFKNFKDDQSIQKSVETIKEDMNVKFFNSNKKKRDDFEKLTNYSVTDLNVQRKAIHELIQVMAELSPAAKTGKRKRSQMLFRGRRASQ

ApQ mutant A469I
protein modification (glycosylation), LC-qTOF of tryptic peptides [1]: increase the modification of the therapeutic proteins IFNγ GM-CSF, and Fc using the A469I, T438S, and H495D mutants of ApQ, respectively | peptide modification (glycosylation), SAMDI-MS [2]: the purified A469I mutant glycosylated the sequence TNYS found in IFNγ more efficiently than did ApQ

ApQ mutant H495D
peptide modification (glycosylation), SAMDI-MS [3]: H495D glycosylated the YNST sequence from Fc more efficiently than did ApQ | modification of Fc relative to ApQ, 2 µM H495D added before CFPS [4]: significantly increased the modification of Fc to 60% or by 1.3-fold | modification of Fc, 2 µM H495D added before CFPS [4]: significantly increased the modification of Fc to 60% or by 1.3-fold | modification of Fc, 5 µM H495D during CFPS [4]: 80% modification of Fc could be achieved

ApQ mutant T438S
peptide modification (glycosylation), SAMDI-MS [5]: T438S glycosylated the LNLS sequence from GM-CSF more efficiently than did ApQ | protein modification (glycosylation), LC-qTOF of tryptic peptides [6]: increase the modification of the therapeutic proteins IFNγ GM-CSF, and Fc using the A469I, T438S, and H495D mutants of ApQ, respectively

Q469A mutant of Actinobacillus pleuropneumoniae N-glycosyltransferase (ApNGT)
protein modification (glycosylation), LC-qTOF of tryptic peptides [1]: ApQ showed no detectable modification of IFNγ (marked as "ND") | glycosylation efficiency of Fc, 2 µM ApQ added after CFPS [4]: the glycosylation efficiency of Fc was increased from 15% to 46% | glycosylation efficiency of Fc, 2 µM ApQ added before CFPS [4]: the glycosylation efficiency of Fc was increased from 15% to 46%
